Positions count from the first letter of the chain named.
B1: TE9 scFv-Fc fusion protein (Fc fusion, not shown: a dimerising Fc or GST; small tags and cut ends)
scFv: QVQLQQSGAALVKPGTSVKLSCKASGYTFTSYWMHWVKQRPGQGLEWIGMIHPKSGSVDYNEKFTNKATLTGDKSSGTAYMQLSSLTSEDSAVYYCARGGYGSPFDYWGQGTTVTVSSGGGGSGGGGSGGGGSENVLTQSPAIMSASPGEKVTMTCSASSSVSYMYWYQQKPGSSPRLLIYRTSNLASGVPARFSGSGSGTSYSLTISSMEAEDAATYYCQQWSSNPPTFGGGTKLEIK
B2: TC6 scFv-Fc fusion protein (Fc fusion, not shown: a dimerising Fc or GST; small tags and cut ends)
scFv: QVKLQESGAELVKPGASVKLSCKASGYTFTSYWIHWVKQRPGQGLEWIGMIHPKSGSINYNEKFRSKATLTVDKSSSTAYMQLSRLTSEDSAVYFCASGGYGSSLDYWGQGTTVTVSSGGGGSGGGGSGGGGSQIVLTQSPAIMSASPGEKVTMTCSASSSVSYMYWYQQKPRSSPISWIYLTSNLASGVPARFSGSGSGTSYSLTISSMEAEDAATYYCQQWSSDPLTFGAGTKLELK
B3: TF9 scFv-Fc fusion protein (Fc fusion)
scFv: B2 scFv with Q134E, I135N, M154I, T155S, M165V, R173G, I177K, S178P, L182R, D226N
notes: not shown: Fc of the scFv-Fc fusion, and any hinge or junction to it
B4: BF9 scFv-Fc fusion protein (Fc fusion)
scFv: QVKLQQSGAELVKPGASVKLSCKASGYTFTSYWVHWVKQRPGQGLEWIGMIHPKSGSADYNEKFTTKATLTADKSSSTAYMQLSSLTSEDSAVYYCARGGYGSPFDYWGQGTTVTVSSGGGGSGGGGSGGGGSENVLTQSPAIMSASPGEKVTMTCSASSSVSYMYWYQQKPGSSPRLLIYDTSNLASGAPVRFSGRGSGTSYSLTISSMEAEDAATYYCQQWSNNPLTFGAGTKLELK
notes: as for B3
B5: BH6 scFv-Fc fusion protein (Fc fusion, not shown: a dimerising Fc or GST; small tags and cut ends)
scFv: QVKLQQSGADLVKPGASVKLSCKASGYTFTSYWMHWVKQRPGQGLEWIGMIHPNSDGTNYNEKFKNRATLTVDKSSSTAYMQLNSLTSEDSAVYYCARWSYGMDSWGQGTTVTVSSGGGGSGGGGSGGGGSDIVLTQSPASLAVSLGQRATITCSASSSVSYMHWYQQKSGTSPKRWIYDTSKLASGVPARFSGSGSGTSYSLTISSMEAEDAATYYCQQWSRNPLTFGAGTKLEIK
B6: BH6 chimeric human IgG1 full antibody (antibody, V domains shown)
VH: QVKLQQSGADLVKPGASVKLSCKASGYTFTSYWMHWVKQRPGQGLEWIGMIHPNSDGTNYNEKFKNRATLTVDKSSSTAYMQLNSLTSEDSAVYYCARWSYGMDSWGQGTTVTVSS
VL: DIVLTQSPASLAVSLGQRATITCSASSSVSYMHWYQQKSGTSPKRWIYDTSKLASGVPARFSGSGSGTSYSLTISSMEAEDAATYYCQQWSRNPLTFGAGTKLEIK
notes: Chimeric antibody with a human IgG1 Fc domain; also called BH6 antibody
B7: TE9 chimeric human IgG1 full antibody (antibody, V domains shown)
VH: QVQLQQSGAALVKPGTSVKLSCKASGYTFTSYWMHWVKQRPGQGLEWIGMIHPKSGSVDYNEKFTNKATLTGDKSSGTAYMQLSSLTSEDSAVYYCARGGYGSPFDYWGQGTTVTVSS
VL: ENVLTQSPAIMSASPGEKVTMTCSASSSVSYMYWYQQKPGSSPRLLIYRTSNLASGVPARFSGSGSGTSYSLTISSMEAEDAATYYCQQWSSNPPTFGGGTKLEIK
notes: Chimeric antibody, mouse variable domains cloned into full human IgG1; also called TE9 antibody; TE9 whole antibody

What was measured:
[1] = target: T1, human 4Ig-B7-H3 expressed on transduced cells (human, UniProt Q5ZPR3 29-534); assay: flow cytometry, scFv-Fc on Jurkat cells transduced with B7-H3 isoforms (FIG. 2D)
T1 construct: also called isoform 1; Jurkat-B7H3
T1 sequence: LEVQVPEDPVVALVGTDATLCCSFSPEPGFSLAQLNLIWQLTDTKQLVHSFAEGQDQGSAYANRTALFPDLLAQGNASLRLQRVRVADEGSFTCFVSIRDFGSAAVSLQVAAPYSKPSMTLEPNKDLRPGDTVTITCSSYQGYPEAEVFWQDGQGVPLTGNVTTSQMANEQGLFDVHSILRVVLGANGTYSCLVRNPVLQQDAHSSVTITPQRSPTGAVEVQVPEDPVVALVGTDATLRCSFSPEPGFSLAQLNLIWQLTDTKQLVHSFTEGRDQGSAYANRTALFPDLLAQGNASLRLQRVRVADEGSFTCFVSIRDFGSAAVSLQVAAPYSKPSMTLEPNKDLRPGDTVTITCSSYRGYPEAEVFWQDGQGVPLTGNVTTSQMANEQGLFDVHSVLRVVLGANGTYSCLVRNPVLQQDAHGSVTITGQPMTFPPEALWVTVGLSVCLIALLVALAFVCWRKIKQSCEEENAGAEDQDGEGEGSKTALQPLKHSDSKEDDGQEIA

[2] = target: T2, mouse B7-H3 on the mouse cell line 3T3/NA1 (mouse, UniProt Q8VE98 29-316); assay: flow cytometry on the mouse cell line 3T3/NA1 (FIG. 5A)
T2 construct: whole, on cells
T2 sequence (looked up): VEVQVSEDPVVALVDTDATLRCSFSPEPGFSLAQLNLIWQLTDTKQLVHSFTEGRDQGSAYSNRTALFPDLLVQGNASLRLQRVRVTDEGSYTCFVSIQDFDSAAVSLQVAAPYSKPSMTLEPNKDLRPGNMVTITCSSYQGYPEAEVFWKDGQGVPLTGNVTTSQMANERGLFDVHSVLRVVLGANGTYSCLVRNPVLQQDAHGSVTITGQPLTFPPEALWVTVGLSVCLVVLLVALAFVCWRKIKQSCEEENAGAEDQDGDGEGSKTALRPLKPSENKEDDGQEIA
Protocol: (§1) TC6, TF9 and BH6 were produced as chimeric antibodies with a human IgG1 Fc domain. Antibodies were purified on protein A columns (Cytiva) and were tested in ELISA against plate bound antigen, with detection using goat anti-human IgG (H+L) (SeraCare). Cross reactivity against mouse B7-H3 was tested using flow cytometry against the mouse cell line 3T3/NA1.

[3] = target: T3, human B7H3 expressed on cell surface (human, UniProt Q5ZPR3 29-534); assay: flow cytometry, chimeric IgG1 and anti-human secondary on neuroblastoma lines and B7-H3 positive Jurkat lines (FIG. 6)
T3 construct: whole, on cells; also called B7-H3 on LAN-1, Kelly, IMR-32 and other B7-H3 positive target cell lines
T3 sequence (looked up): T1 sequence
Text: FIG. 6—Chimeric antibodies derived from TE9 and BH6 show specificity for human B7H3 expressed on cell surface. TE9 and BH6 ScFv that had been cloned into full human IgG1 antibodies were used in staining experiments. A. Chimeric human IgG1 full antibodies derived from TE9 and BH6 ScFvs were used to stain 3 neuroblastoma cell lines, LAN-1, Kelly and IMR-32. […] B. Chimeric antibodies TE9 and BH6 were used to stain the 3 B7-H3 positive Jurkat cell lines, 4Ig-B7-H3, 2Ig-B7-H3 and T-B7-H3 (see FIG. 2)

[4] = target: T4, recombinant mouse B7-H3 (plate bound) (mouse, UniProt Q8VE98 29-244, limits assumed); assay: binding ELISA with immobilised recombinant protein (FIG. 28C)
T4 sequence (looked up): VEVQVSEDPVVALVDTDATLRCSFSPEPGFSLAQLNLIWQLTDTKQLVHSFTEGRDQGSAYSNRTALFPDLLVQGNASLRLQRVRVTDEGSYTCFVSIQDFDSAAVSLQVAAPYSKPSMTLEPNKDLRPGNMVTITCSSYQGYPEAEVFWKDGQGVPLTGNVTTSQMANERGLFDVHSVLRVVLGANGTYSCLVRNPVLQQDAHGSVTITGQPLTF
Protocol: as §1

Binder	binding result [1]	further results
B1	binds	
B2	binds	
B3	binds	
B4	binds	
B5	binds	
B6		binding result [2]: binds; binding result [3]: binds
B7		binding result [4]: no binding; binding result [3]: binds
